# Source: article PMC10556141, “Yeast Rad52 is a homodecamer and possesses BRCA2-like bipartite Rad51 binding modes”
# B1: FAM-(dT)70 (ssDNA)
# DNA: TTTTTTTTTTTTTTTTTTTTTTTTTTTTTTTTTTTTTTTTTTTTTTTTTTTTTTTTTTTTTTTTTTTTTT
# B2: (dT)70 unlabeled (ssDNA)
# DNA: B1 DNA
# B3: Cy5-(dT)45-Cy3 (ssDNA)
# DNA: TTTTTTTTTTTTTTTTTTTTTTTTTTTTTTTTTTTTTTTTTTTTT
# B4: (dT)45 (ssDNA)
# DNA: B3 DNA
# B5: (dT)84 (ssDNA)
# DNA: TTTTTTTTTTTTTTTTTTTTTTTTTTTTTTTTTTTTTTTTTTTTTTTTTTTTTTTTTTTTTTTTTTTTTTTTTTTTTTTTTTTT
# B6: (dT)54 (ssDNA)
# DNA: TTTTTTTTTTTTTTTTTTTTTTTTTTTTTTTTTTTTTTTTTTTTTTTTTTTTTT
# B7: Cy5-(dT)97-Cy3 (ssDNA)
# DNA: TTTTTTTTTTTTTTTTTTTTTTTTTTTTTTTTTTTTTTTTTTTTTTTTTTTTTTTTTTTTTTTTTTTTTTTTTTTTTTTTTTTTTTTTTTTTTTTTT
# B8: (dT)97 (ssDNA)
# DNA: B7 DNA
# B9: Cy5-(dT)80-Cy3 (ssDNA)
# DNA: TTTTTTTTTTTTTTTTTTTTTTTTTTTTTTTTTTTTTTTTTTTTTTTTTTTTTTTTTTTTTTTTTTTTTTTTTTTTTTTT
# B10: FAM-(dT)35 (ssDNA)
# DNA: TTTTTTTTTTTTTTTTTTTTTTTTTTTTTTTTTTT
# How the values were obtained:
# [1] = molecular target: T1, Rad52 (Saccharomyces cerevisiae, UniProt P06778 1-471); assay: fluorescence anisotropy; preformed complex, reversible; Anisotropy/FRET: 50 mM Tris-acetate pH 7.5, 50 mM KCl, 5 mM MgCl2, 10% glycerol, 1 mM DTT, 0.2 mg/mL BSA, 23 C; stopped flow: 50 mM Tris-acetate pH 7.5, 5 mM Mg; settings: protein: recombinant; chain copies: 10; label: 5'-FAM; single strand
# [2] = molecular target: T1, Rad52; assay: competition; competes with FAM-(dT)70; Anisotropy/FRET: 50 mM Tris-acetate pH 7.5, 50 mM KCl, 5 mM MgCl2, 10% glycerol, 1 mM DTT, 0.2 mg/mL BSA, 23 C; stopped flow: 50 mM Tris-acetate pH 7.5, 5 mM Mg; settings: protein: recombinant; chain copies: 10; single strand
# [3] = molecular target: T1, Rad52; assay: FRET; 45 nt sufficient to capture FRET; Anisotropy/FRET: 50 mM Tris-acetate pH 7.5, 50 mM KCl, 5 mM MgCl2, 10% glycerol, 1 mM DTT, 0.2 mg/mL BSA, 23 C; stopped flow: 50 mM Tris-acetate pH 7.5, 5 mM Mg; settings: protein: recombinant; chain copies: 10; label: 5'-Cy5, 3'-Cy3; single strand
# [4] = molecular target: T2, Rad52ΔC (Saccharomyces cerevisiae, UniProt P06778 1-217); assay: AUC sedimentation velocity; Anisotropy/FRET: 50 mM Tris-acetate pH 7.5, 50 mM KCl, 5 mM MgCl2, 10% glycerol, 1 mM DTT, 0.2 mg/mL BSA, 23 C; stopped flow: 50 mM Tris-acetate pH 7.5, 5 mM Mg; settings: protein: recombinant; chain copies: 10; single strand
# [5] = molecular target: T1, Rad52; assay: AUC sedimentation velocity; 1:1 decamer:DNA; Anisotropy/FRET: 50 mM Tris-acetate pH 7.5, 50 mM KCl, 5 mM MgCl2, 10% glycerol, 1 mM DTT, 0.2 mg/mL BSA, 23 C; stopped flow: 50 mM Tris-acetate pH 7.5, 5 mM Mg; settings: protein: recombinant; chain copies: 10; single strand
# [6] = molecular target: T1, Rad52; assay: tryptophan quenching; high affinity site, two-site sequential model; Anisotropy/FRET: 50 mM Tris-acetate pH 7.5, 50 mM KCl, 5 mM MgCl2, 10% glycerol, 1 mM DTT, 0.2 mg/mL BSA, 23 C; stopped flow: 50 mM Tris-acetate pH 7.5, 5 mM Mg; settings: protein: recombinant; chain copies: 10; single strand
# [7] = molecular target: T1, Rad52; assay: tryptophan quenching; lower affinity site, two-site sequential model; Anisotropy/FRET: 50 mM Tris-acetate pH 7.5, 50 mM KCl, 5 mM MgCl2, 10% glycerol, 1 mM DTT, 0.2 mg/mL BSA, 23 C; stopped flow: 50 mM Tris-acetate pH 7.5, 5 mM Mg; settings: protein: recombinant; chain copies: 10; single strand
# [8] = molecular target: T1, Rad52; assay: tryptophan quenching; profile similar to (dT)84; Anisotropy/FRET: 50 mM Tris-acetate pH 7.5, 50 mM KCl, 5 mM MgCl2, 10% glycerol, 1 mM DTT, 0.2 mg/mL BSA, 23 C; stopped flow: 50 mM Tris-acetate pH 7.5, 5 mM Mg; settings: protein: recombinant; chain copies: 10; single strand
# [9] = molecular target: T3, Rad51 (Saccharomyces cerevisiae, UniProt P25454 1-400); assay: stopped-flow FRET; ATP; filament on Rad52-prebound DNA; Anisotropy/FRET: 50 mM Tris-acetate pH 7.5, 50 mM KCl, 5 mM MgCl2, 10% glycerol, 1 mM DTT, 0.2 mg/mL BSA, 23 C; stopped flow: 50 mM Tris-acetate pH 7.5, 5 mM Mg; settings: protein: recombinant; label: 5'-Cy5, 3'-Cy3; single strand
# [10] = molecular target: T1, Rad52; assay: stopped-flow FRET; Anisotropy/FRET: 50 mM Tris-acetate pH 7.5, 50 mM KCl, 5 mM MgCl2, 10% glycerol, 1 mM DTT, 0.2 mg/mL BSA, 23 C; stopped flow: 50 mM Tris-acetate pH 7.5, 5 mM Mg; settings: protein: recombinant; chain copies: 10; label: 5'-Cy5, 3'-Cy3; single strand
# [11] = molecular target: T2, Rad52ΔC; assay: as above; settings: protein: recombinant; chain copies: 10; label: 5'-Cy5, 3'-Cy3; single strand
# [12] = molecular target: T3, Rad51; assay: FRET; outcompetes prebound Rad52 or Rad52ΔC at steady state; Anisotropy/FRET: 50 mM Tris-acetate pH 7.5, 50 mM KCl, 5 mM MgCl2, 10% glycerol, 1 mM DTT, 0.2 mg/mL BSA, 23 C; stopped flow: 50 mM Tris-acetate pH 7.5, 5 mM Mg; settings: protein: recombinant; label: 5'-Cy5, 3'-Cy3; single strand
# [13] = molecular target: T1, Rad52; assay: FRET; steady-state wrapping; Anisotropy/FRET: 50 mM Tris-acetate pH 7.5, 50 mM KCl, 5 mM MgCl2, 10% glycerol, 1 mM DTT, 0.2 mg/mL BSA, 23 C; stopped flow: 50 mM Tris-acetate pH 7.5, 5 mM Mg; settings: protein: recombinant; chain copies: 10; label: 5'-Cy5, 3'-Cy3; single strand
# [14] = molecular target: T2, Rad52ΔC; assay: as above; settings: protein: recombinant; chain copies: 10; label: 5'-Cy5, 3'-Cy3; single strand
# [15] = molecular target: T1, Rad52; assay: fluorescence anisotropy; stoichiometric, too tight to fit; Anisotropy/FRET: 50 mM Tris-acetate pH 7.5, 50 mM KCl, 5 mM MgCl2, 10% glycerol, 1 mM DTT, 0.2 mg/mL BSA, 23 C; stopped flow: 50 mM Tris-acetate pH 7.5, 5 mM Mg; settings: protein: recombinant; chain copies: 10; label: 5'-FAM; single strand
# [16] = molecular target: T2, Rad52ΔC; assay: as above; settings: protein: recombinant; chain copies: 10; label: 5'-FAM; single strand
binder,measurement,setting,value
B1,binding result,[1],binds
B2,binding result,[2],binds
B3,binding result,[3],binds
B4,binding result,[4],binds
same,binding result,[5],binds
B5,Kd,[6],0.0013 nM
same,Kd,[7],28 nM
B6,binding result,[8],binds
B7,binding result,[9],binds
same,binding result,[10],binds
same,binding result,[11],binds
B8,binding result,[4],binds
same,binding result,[5],binds
B9,binding result,[12],binds
same,binding result,[13],binds
same,binding result,[14],binds
B10,binding result,[15],binds
same,binding result,[16],binds
